Laboratory results from paper PMC3584034.

Tests used:
[1] = target: T1, EpCAM (human (breast and colon cancer cell lines)) (UniProt P16422); assay: cell binding (method not given); conditions: 2'-fluoropyrimidine (Methods: 2'-fluoropyrimidine or 2'-O-methyl-pyrimidine bases); 3' inverted dT; FFPE staining: PBS, 5 mM MgCl2, 0.1 mg/mL tRNA, 1 mg/mL BSA, 10% dextran sulphate, 500 ug/mL heparin, 100 nM aptamer, 15 min, 37 C; flow cytometry: 100 nM …
T1 sequence: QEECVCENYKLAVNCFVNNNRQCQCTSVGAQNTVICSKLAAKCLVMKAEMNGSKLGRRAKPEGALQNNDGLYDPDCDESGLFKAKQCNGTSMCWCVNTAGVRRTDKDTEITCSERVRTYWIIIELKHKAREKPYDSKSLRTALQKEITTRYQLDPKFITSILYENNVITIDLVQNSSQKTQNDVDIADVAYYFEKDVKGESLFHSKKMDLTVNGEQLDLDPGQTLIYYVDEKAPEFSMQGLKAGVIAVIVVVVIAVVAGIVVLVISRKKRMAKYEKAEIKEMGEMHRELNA

[2] = target: T1, EpCAM (human (breast and colon cancer cell lines)); assay: cell binding (cited); conditions: 2'-fluoropyrimidine (Methods: 2'-fluoropyrimidine or 2'-O-methyl-pyrimidine bases); 3' inverted dT; FFPE staining: PBS, 5 mM MgCl2, 0.1 mg/mL tRNA, 1 mg/mL BSA, 10% dextran sulphate, 500 ug/mL heparin, 100 nM aptamer, 15 min, 37 C; flow cytometry: 100 nM …; cited from earlier work

Row | Sequence | Kd [1] [nM] | Kd [2] [nM]
1 | ACGUAUCCCUUUUCGCGUA [Ep23] | 37 | 
2 | GCGACUGGUUACCCGGUCG [DT3] |  | 158
